Here are results for two substances from PMC10925414.

For test [1], the target named is γC3 protocadherin EC1-EC4 (Mus musculus). Conditions: cited from earlier work.
In test [2] the target is γC3 EC1-EC4 wild type (PcdhγC3 EC1-EC4 ectodomain fragment) (mouse). In words: AUC; sedimentation equilibrium of single proteins; 1.1, 0.73 and 0.37 mg/mL; 10 mM Tris, 150 mM NaCl, 3 mM CaCl2, pH 8.0, 250 mM imidazole; 25°C; 11000-20000 rpm; interference at 675 nm; global fit in SedPhat; dimer to monomers.

One may read the Kd as the free concentration of one partner at which half of the binding sites on the other are occupied at equilibrium, for simple one-to-one binding. As for “γC3 protocadherin EC1-EC4 (from UniProt Q9UN70)”, in test [1], the Kd was 115 µM.

“γC3 EC1-EC4 wild type (PcdhγC3 EC1-EC4 ectodomain fragment) (domain or fragment)” gave a Kd in test [2] of 115 µM.
